Measurements from patent US9845340B2, “Peptides that specifically bind HGF receptor (cMet) and uses thereof” (Dyax Corp., priority 2003, dated 2017).

Experiments:
[1] = target: cMet-Fc fusion protein (Homo sapiens, UniProt P08581); assay: Protein phage ELISA: peptide-displaying phage binding to soluble cMet-Fc versus TRAIL-Fc; conditions: phage isolate; cMet-Fc vs. TRAIL-Fc
Method: Protein phage ELISAs using peptide-displaying phage isolates from the various selection campaigns were performed to determine specificity of the peptides for cMet versus an unrelated Fc-fusion protein (TRAIL-Fc). Briefly, 384-well plates were coated overnight at 4 C with 0.5 μg/mL of cMet-Fc fusion protein or TRAIL-Fc fusion protein (background). The plates were blocked for 2 hours 37C with 3% (w/v) BSA in PBS containing 0.05% (v/v) Tween-20 (PBST). The plates were washed with PBST and 100 μL of peptide-displaying phage were added to each well. The plates were incubated for 2 hours at room temperature and washed with PBST. cMet-binding peptide-displaying phage were detected using an HRP-conjugated anti-M13 antibody.

[2] = target: T1, 3T3 cells that over-express human cMet (Homo sapiens, UniProt P08581); assay: Whole cell ELISA of peptide-displaying phage; type: cell-based; conditions: phage isolate; 3T3 cells expressing human cMet vs. non-expressing 3T3 cells
T1 construct: expressed in transfected cells; host or cells: 3T3 cells
Method: Whole cell ELISAs were performed using 3T3 cells that over-express human cMet. […] Briefly, 96-well plates were seeded with 10^5 cells per well. The plates were centrifuged for 5 minutes at 1600 rpm to pellet the cells. The resulting cell layer was fixed with 0.1% (v/v) glutaraldehyde for 12 minutes at 37 C. […] Peptide-displaying phage also were blocked in the above solution for 1 hour at 37 C. 100 μL of blocked phage was then added to each well and the plates were incubated for 1 hour at room temperature. The plates were washed with PBST. cMet-binding peptide-displaying phage were detected using an HRP-conjugated anti-M13 antibody.

T1 sequence (P08581 25-1390): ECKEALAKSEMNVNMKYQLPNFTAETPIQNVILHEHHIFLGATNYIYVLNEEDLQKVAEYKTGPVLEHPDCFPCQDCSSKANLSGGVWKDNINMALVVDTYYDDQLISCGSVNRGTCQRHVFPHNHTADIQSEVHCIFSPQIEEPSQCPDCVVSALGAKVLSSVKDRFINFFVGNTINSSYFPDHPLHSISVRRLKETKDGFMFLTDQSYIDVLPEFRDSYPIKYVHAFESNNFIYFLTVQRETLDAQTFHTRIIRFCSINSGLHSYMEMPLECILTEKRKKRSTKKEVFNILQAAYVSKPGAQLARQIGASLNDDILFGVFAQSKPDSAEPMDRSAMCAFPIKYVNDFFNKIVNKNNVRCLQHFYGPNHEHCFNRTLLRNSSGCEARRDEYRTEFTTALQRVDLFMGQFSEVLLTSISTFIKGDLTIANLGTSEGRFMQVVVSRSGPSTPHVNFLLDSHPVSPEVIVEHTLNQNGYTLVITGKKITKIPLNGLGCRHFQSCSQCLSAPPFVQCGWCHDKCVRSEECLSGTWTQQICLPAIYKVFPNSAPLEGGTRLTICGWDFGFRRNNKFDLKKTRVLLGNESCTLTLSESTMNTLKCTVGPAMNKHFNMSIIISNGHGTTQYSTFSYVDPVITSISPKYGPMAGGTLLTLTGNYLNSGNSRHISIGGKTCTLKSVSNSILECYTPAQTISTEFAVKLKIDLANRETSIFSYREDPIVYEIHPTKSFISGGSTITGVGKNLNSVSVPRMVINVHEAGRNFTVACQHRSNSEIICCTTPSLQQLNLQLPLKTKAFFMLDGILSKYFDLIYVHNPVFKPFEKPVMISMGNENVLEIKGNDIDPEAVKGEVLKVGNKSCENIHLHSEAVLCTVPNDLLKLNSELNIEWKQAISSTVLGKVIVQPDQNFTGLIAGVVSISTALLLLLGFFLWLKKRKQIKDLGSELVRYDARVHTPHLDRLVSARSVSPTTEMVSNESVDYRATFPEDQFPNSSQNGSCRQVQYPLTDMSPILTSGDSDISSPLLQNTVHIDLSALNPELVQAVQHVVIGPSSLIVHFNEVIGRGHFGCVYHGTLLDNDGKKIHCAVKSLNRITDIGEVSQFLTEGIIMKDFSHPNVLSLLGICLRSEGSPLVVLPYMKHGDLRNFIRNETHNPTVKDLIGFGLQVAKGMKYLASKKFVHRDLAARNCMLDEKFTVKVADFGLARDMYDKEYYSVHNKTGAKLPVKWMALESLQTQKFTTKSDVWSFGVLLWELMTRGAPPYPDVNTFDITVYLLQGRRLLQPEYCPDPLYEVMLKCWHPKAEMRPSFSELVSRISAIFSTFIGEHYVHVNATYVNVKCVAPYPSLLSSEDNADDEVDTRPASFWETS
Sequence of cMet-Fc fusion protein (P08581 25-307 limits assumed): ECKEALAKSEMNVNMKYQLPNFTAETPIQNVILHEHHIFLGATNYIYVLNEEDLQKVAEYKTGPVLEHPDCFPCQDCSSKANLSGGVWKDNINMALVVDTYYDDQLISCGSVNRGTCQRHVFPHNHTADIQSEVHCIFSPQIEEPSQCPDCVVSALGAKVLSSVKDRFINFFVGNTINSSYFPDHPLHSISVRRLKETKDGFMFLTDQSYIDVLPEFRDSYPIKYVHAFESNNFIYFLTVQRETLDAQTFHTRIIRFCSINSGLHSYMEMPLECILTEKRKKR
Sequence of cMet-Fc fusion protein (P08581 with tags, fused parts or gaps limits assumed): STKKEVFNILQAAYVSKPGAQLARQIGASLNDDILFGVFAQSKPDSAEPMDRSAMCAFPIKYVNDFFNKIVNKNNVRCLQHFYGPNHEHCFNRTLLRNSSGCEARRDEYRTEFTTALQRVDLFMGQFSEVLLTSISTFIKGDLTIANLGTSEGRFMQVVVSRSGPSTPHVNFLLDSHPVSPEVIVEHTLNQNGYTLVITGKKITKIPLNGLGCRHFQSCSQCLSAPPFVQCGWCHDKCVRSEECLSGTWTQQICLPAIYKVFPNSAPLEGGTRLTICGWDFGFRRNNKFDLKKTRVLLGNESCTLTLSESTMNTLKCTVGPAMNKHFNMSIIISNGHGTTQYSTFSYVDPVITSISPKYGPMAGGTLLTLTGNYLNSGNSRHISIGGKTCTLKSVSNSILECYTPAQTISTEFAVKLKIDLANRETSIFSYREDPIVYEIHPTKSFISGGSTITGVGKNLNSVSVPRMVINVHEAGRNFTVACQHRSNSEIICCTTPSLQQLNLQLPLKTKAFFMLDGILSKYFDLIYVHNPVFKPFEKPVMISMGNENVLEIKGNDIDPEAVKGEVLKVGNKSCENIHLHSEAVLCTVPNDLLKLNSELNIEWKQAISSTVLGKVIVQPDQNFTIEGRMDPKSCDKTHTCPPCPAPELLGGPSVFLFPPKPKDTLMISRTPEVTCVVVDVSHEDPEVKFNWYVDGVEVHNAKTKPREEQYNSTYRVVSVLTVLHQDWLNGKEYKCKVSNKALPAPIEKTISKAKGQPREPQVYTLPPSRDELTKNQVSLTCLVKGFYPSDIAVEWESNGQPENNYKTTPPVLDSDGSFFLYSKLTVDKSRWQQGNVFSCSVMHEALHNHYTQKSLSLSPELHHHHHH

Compound | Protein ELISA [1] | WC ELISA [2]
CC[C@H](C)[C@H](NC(=O)[C@H](CCC(N)=O)NC(=O)[C@H](CCCNC(=N)N)NC(=O)CNC(=O)[C@H](CO)NC(=O)[C@H](CC(=O)O)NC(=O)[C@H](CC(=O)O)NC(=O)[C@@H](NC(=O)[C@@H]1CCCN1C(=O)[C@H](Cc1ccccc1)NC(=O)[C@@H](NC(=O)[C@H](Cc1ccc(O)cc1)NC(=O)[C@@H]1CCCN1C(=O)[C@H](CO)NC(=O)[C@H](CCC(N)=O)NC(=O)[C@H](C)NC(C)=O)[C@@H](C)CC)[C@@H](C)CC)C(=O)N[C@@H](Cc1ccccc1)C(=O)N[C@H](C(=O)N[C@H](C(=O)N[C@@H](CCC(N)=O)C(=O)N[C@@H](Cc1c[nH]c2ccccc12)C(=O)NCC(=O)NCC(=O)NCC(=O)NCC(=O)N[C@@H](CCCCNC(=O)c1ccc2c(c1)C(=O)OC21c2ccc(O)cc2Oc2cc(O)ccc21)C(N)=O)[C@@H](C)CC)C(C)C [SEQ ID NO: 463] | 4.4 fold over background | 1.23 fold over background
GSSTICPGTACVDHAP (Synthetically generated cMet-binding peptide sequence) [SEQ ID NO: 008] | 3.2 fold over background | 1.27 fold over background
AGVLQCIGFEWFCDIWGT (Synthetically generated cMet-binding peptide sequence) [SEQ ID NO: 022] | 3.4 fold over background | 1.40 fold over background
AGNWICNLSEMRCYPKGT (Synthetically generated cMet-binding peptide sequence) [SEQ ID NO: 013] | 3.9 fold over background | 1.40 fold over background
AQVGESLDDGWTFFSDKWFDFF (Synthetically generated cMet-binding peptide sequence) [SEQ ID NO: 485] | 3.0 fold over background | 1.17 fold over background
GDLLVCKFDDKFWTETCEWADP (Synthetically generated cMet-binding peptide sequence) [SEQ ID NO: 392] | 23.7 fold over background | 1.47 fold over background
CC[C@H](C)[C@H](NC(=O)CNC(=O)[C@H](CCC(N)=O)NC(=O)[C@@H](NC(=O)[C@H](CCC(N)=O)NC(=O)[C@H](C)NC(C)=O)[C@@H](C)CC)C(=O)N[C@@H](CCC(N)=O)C(=O)N[C@@H](CCCCN)C(=O)N[C@H](C(=O)N[C@@H](CCC(=O)O)C(=O)N[C@@H](CCC(N)=O)C(=O)NCC(=O)N[C@@H](CCC(=O)O)C(=O)N[C@@H](Cc1ccccc1)C(=O)N[C@@H](Cc1ccc(O)cc1)C(=O)N[C@@H](Cc1c[nH]c2ccccc12)C(=O)N[C@@H](Cc1ccccc1)C(=O)N[C@@H](CC(N)=O)C(=O)N[C@@H](Cc1c[nH]c2ccccc12)C(=O)N[C@@H](Cc1ccccc1)C(=O)N1CCC[C@H]1C(=O)N[C@@H](C)C(=O)NCC(=O)NCC(=O)NCC(=O)N[C@@H](CCCCNC(=O)c1ccc2c(c1)C(=O)OC21c2ccc(O)cc2Oc2cc(O)ccc21)C(N)=O)[C@@H](C)O [SEQ ID NO: 450] | 4.3 fold over background | 1.10 fold over background
AGAFFCSGPPTFMCSLYGT (Synthetically generated cMet-binding peptide sequence) [SEQ ID NO: 098] | 6.2 fold over background | 1.27 fold over background
CSCC[C@H](NC(=O)[C@H](Cc1ccccc1)NC(=O)[C@H](CCC(N)=O)NC(=O)[C@@H](NC(=O)[C@@H]1CCCN1C(=O)[C@H](CCSC)NC(=O)[C@H](Cc1c[nH]c2ccccc12)NC(=O)[C@@H](NC(=O)[C@H](CC(=O)O)NC(=O)[C@H](CCSC)NC(=O)[C@H](CCC(N)=O)NC(=O)[C@H](CCCNC(=N)N)NC(=O)[C@H](CCC(N)=O)NC(=O)[C@@H](NC(=O)[C@H](CO)NC(=O)[C@H](Cc1c[nH]cn1)NC(=O)[C@H](CCC(N)=O)NC(=O)[C@H](C)NC(C)=O)C(C)C)C(C)C)C(C)C)C(=O)N[C@@H](C)C(=O)NCC(=O)N[C@@H](Cc1ccccc1)C(=O)N[C@H](C(=O)NCC(=O)NCC(=O)NCC(=O)N[C@@H](CCCCNC(=O)c1ccc2c(c1)C(=O)OC21c2ccc(O)cc2Oc2cc(O)ccc21)C(N)=O)[C@@H](C)O [SEQ ID NO: 467] | 3.9 fold over background | 1.30 fold over background
AGWWSCQWELNVCIWQGT (Synthetically generated cMet-binding peptide sequence) [SEQ ID NO: 016] | 4.1 fold over background | 1.33 fold over background
AGYWDCKGPPHFFCEWHGT (Synthetically generated cMet-binding peptide sequence) [SEQ ID NO: 080] | 7.4 fold over background | 1.23 fold over background
AGSIACTGWPYFSCIDLGT (Synthetically generated cMet-binding peptide sequence) [SEQ ID NO: 088] | 5.6 fold over background | 1.10 fold over background
AGHFECPKHQYMCDMPGT (Synthetically generated cMet-binding peptide sequence) [SEQ ID NO: 042] | 3.1 fold over background | 1.23 fold over background
AGWSDCLGPPQFTCVHWGT (Synthetically generated cMet-binding peptide sequence) [SEQ ID NO: 083] | 3.9 fold over background | 1.33 fold over background
AQMWHRVHDPGYTFEVTWLWDN (Synthetically generated cMet-binding peptide sequence) [SEQ ID NO: 488] | 3.0 fold over background | 1.27 fold over background
AGVIVCNLSMMYCLYPGT (Synthetically generated cMet-binding peptide sequence) [SEQ ID NO: 023] | 3.2 fold over background | 1.33 fold over background
AGYFECKGPPTFECWLSGT (Synthetically generated cMet-binding peptide sequence) [SEQ ID NO: 060] | 8.1 fold over background | 1.43 fold over background
AGLPKCSGPPWFSCYYGGT (Synthetically generated cMet-binding peptide sequence) [SEQ ID NO: 066] | 13.5 fold over background | 1.30 fold over background
CC(=O)N[C@@H](C)C(=O)NCC(=O)NCC(=O)N[C@@H](Cc1c[nH]c2ccccc12)C(=O)N[C@@H](CCC(=O)O)C(=O)N[C@H]1CSSC[C@@H](C(=O)NCC(=O)N[C@@H](Cc2ccc(O)cc2)C(=O)N[C@@H](Cc2ccc(O)cc2)C(=O)NCC(=O)N[C@H](C(=O)NCC(=O)NCC(=O)NCC(=O)N[C@@H](CCCCNC(=O)c2ccc3c(c2)C(=O)OC32c3ccc(O)cc3Oc3cc(O)ccc32)C(N)=O)[C@@H](C)O)NC(=O)[C@H](CCC(N)=O)NC(=O)[C@H](Cc2ccccc2)NC(=O)[C@H](Cc2c[nH]c3ccccc23)NC(=O)[C@@H]2CCCN2C(=O)[C@@H]2CCCN2C(=O)CNC(=O)[C@H]([C@@H](C)O)NC1=O [SEQ ID NO: 067] | 8.0 fold over background | 1.47 fold over background
CC[C@H](C)[C@H](NC(=O)[C@H](CO)NC(=O)CNC(=O)[C@H](C)NC(C)=O)C(=O)N[C@@H](CCC(N)=O)C(=O)N[C@H]1CSSC[C@@H](C(=O)N[C@H](C(=O)N2CCC[C@H]2C(=O)N[C@@H](Cc2ccc(O)cc2)C(=O)NCC(=O)N[C@H](C(=O)NCC(=O)NCC(=O)NCC(=O)N[C@@H](CCCCNC(=O)c2ccc3c(c2)C(=O)OC32c3ccc(O)cc3Oc3cc(O)ccc32)C(N)=O)[C@@H](C)O)[C@@H](C)O)NC(=O)[C@H](CCC(=O)O)NC(=O)[C@H](Cc2ccccc2)NC(=O)[C@H](CO)NC(=O)[C@@H]2CCCN2C(=O)[C@@H]2CCCN2C(=O)CNC(=O)[C@H](C(C)C)NC1=O [SEQ ID NO: 074] | 6.7 fold over background | 1.37 fold over background
AGYWSCAGPPMFMCTWQGT (Synthetically generated cMet-binding peptide sequence) [SEQ ID NO: 079] | 10.7 fold over background | 1.27 fold over background
AGYYHCIDDFPQCKWMGT (Synthetically generated cMet-binding peptide sequence) [SEQ ID NO: 017] | 3.9 fold over background | 1.37 fold over background
GSSHLCNPEFCHFTAP (Synthetically generated cMet-binding peptide sequence) [SEQ ID NO: 003] | 3.2 fold over background | 1.30 fold over background
AQAYEWWADESIFNHGYYWGHQ (Synthetically generated cMet-binding peptide sequence) [SEQ ID NO: 470] | 3.8 fold over background | 1.20 fold over background
AGWFECEFGFWGCNWLGT (Synthetically generated cMet-binding peptide sequence) [SEQ ID NO: 018] | 3.9 fold over background | 1.13 fold over background
